Molecular target: LSD1 (lysine specific demethylase 1), full length (UniProt O60341)

K (M,post) (post-equilibrium apparent Michaelis-Menten constant) of the demethylation of K4meK9 by 200 nM CoREST ternary complex, APO, real-time 1H NMR assay: 2.3 µM
K (M,post) (post-equilibrium apparent Michaelis-Menten constant) of the demethylation of K4meK9 by the CoREST ternary complex pre-equilibrated with 5 μM MS275 HDAC inhibitor, real-time 1H NMR assay: 9.2 µM
Substance: H3K4me 1-21 peptide
